These results are taken from paper doi:10.1101/2021.09.17.460839, “Structural and functional characterization of Rv0792c from Mycobacterium tuberculosis: identifying small molecule inhibitors against GntR protein” (bioRxiv, 2021).

As usually defined, the stoichiometry N is a count of units in the complex or per binding partner.

This data set concerns the molecule itself. Nature of the data set: AUC.

B1: (His)6-Rv0792c, wild type, GntR family (HutC subfamily) transcription factor from M. tuberculosis (natural protein)
chain: MTSVKLDLDAADLRISRGSVPASTQLAEALKAQIIQQRLPRGGRLPSERELIDRSGLSRVTVRAAVGMLQRQGWLVRRQGLGTFVADPVEQELSCGVRTITEVLLSCGVTPQVDVLSHQTGPAPQRISETLGLVEVLCIRRRIRTGDQPLALVTAYLPPGVGPAVEPLLSGSADTETTYAMWERRLGVRIAQATHEIHAAGASPDVADALGLAVGSPVLVVDRTSYTNDGKPLEVVVFHHRPERYQFSVTLPRTLPGSGAGIIEKRDFA
notes: not shown: His6, N-terminal, kept
Consider B1, for which the “stoichiometry N” value was found to be 2.
